Test results as given in PMC8677749.

Target: HBV core protein (Cp) dimer (Hepatitis B virus (strain NC_003977.1, subtype ayw?)) (UniProt P03146)
Assay: NCP assembly, SEC-MALLS
Conditions: 20 mM HEPES pH 7.5, 250 mM NaCl, 5 mM DTT, up to 0.15 M GuHCl, ~20 C; 1 nM RNA, Cp dimer titrated to 1.2 uM

HBV core protein (Cp) dimer (Hepatitis B virus (strain NC_003977.1, subtype ayw?)), sequence (P03146 whole entry): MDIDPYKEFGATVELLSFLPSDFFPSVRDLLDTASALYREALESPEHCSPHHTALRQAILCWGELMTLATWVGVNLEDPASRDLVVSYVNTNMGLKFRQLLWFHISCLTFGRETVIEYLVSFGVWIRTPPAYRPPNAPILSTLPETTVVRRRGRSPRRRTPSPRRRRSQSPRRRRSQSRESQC

Substance: HBV JQ707375.1 gRNA (pgRNA) wild type
- binding signal (% RNA yield after RNase A): 81
